Data reported in the supplement of paper PMC9112550, “Optimization of the antimicrobial peptide Bac7 by deep mutational scanning” (BMC Biology, 2022).
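Also: peptides expressed intracellularly from a pBAD plasmid library in pooled LB shake-flask culture, induced with 0.3% L-arabinose, DNA abundance read by NGS, three biological replicates, DESeq2 with apeglm shrinkage.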

What follows are sequences tested on Escherichia coli TOP10 (assay: shrunken log2 fold change of peptide-encoding DNA abundance (4.5 h post-induction vs induction); higher = less antimicrobial activity (less host growth inhibition)). Conditions: time post-induction: 4.5 h; library: site-saturation at positions 5, 18, 19, 20.
In the case of RRIRIRPPRLPRPRPRPREVPRP, the “shrunken log2 fold change” value is reported as -0.118.
With RRIRDRPPRLPRPRPRPVNPPRP the “shrunken log2 fold change” value was 0.342.
In the case of RRIRMRPPRLPRPRPRPAFAPRP, the “shrunken log2 fold change” value is reported as 0.738.
In the case of RRIRCRPPRLPRPRPRPSECPRP, the “shrunken log2 fold change” value is reported as -0.0818.
RRIRVRPPRLPRPRPRPVDSPRP was tested, and the “shrunken log2 fold change” value was 0.0147.
RRIRKRPPRLPRPRPRPVWPPRP was tested, and the “shrunken log2 fold change” value was 0.699.
RRIRNRPPRLPRPRPRPGDGPRP was tested, and the “shrunken log2 fold change” value was 0.292.
RRIRQRPPRLPRPRPRPGLAPRP was tested, and the “shrunken log2 fold change” value was 0.197.
With RRIRLRPPRLPRPRPRPYSPPRP the “shrunken log2 fold change” value was -0.299.
With RRIRNRPPRLPRPRPRPNPNPRP the “shrunken log2 fold change” value was 0.0656.
In the case of RRIRERPPRLPRPRPRPKKAPRP, the “shrunken log2 fold change” value is reported as -0.0599.
In the case of RRIRHRPPRLPRPRPRPVLGPRP, the “shrunken log2 fold change” value is reported as 0.463.
For RRIRWRPPRLPRPRPRPEQMPRP, the “shrunken log2 fold change” value was 0.222.
With RRIRARPPRLPRPRPRPQKQPRP the “shrunken log2 fold change” value was -0.00111.
RRIRDRPPRLPRPRPRPVAMPRP was tested, and the “shrunken log2 fold change” value was 0.633.
With RRIRWRPPRLPRPRPRPMSAPRP the “shrunken log2 fold change” value was 0.338.
For RRIRERPPRLPRPRPRPADNPRP, the “shrunken log2 fold change” value was -0.03.
RRIRIRPPRLPRPRPRPHRYPRP was tested, and the “shrunken log2 fold change” value was -0.171.
In the case of RRIRHRPPRLPRPRPRPSDEPRP, the “shrunken log2 fold change” value is reported as -0.000726.
With RRIRYRPPRLPRPRPRPVMQPRP the “shrunken log2 fold change” value was -0.315.
In the case of RRIRRRPPRLPRPRPRPQSMPRP, the “shrunken log2 fold change” value is reported as 0.0695.
With RRIRTRPPRLPRPRPRPIVPPRP the “shrunken log2 fold change” value was -0.229.
In the case of RRIRDRPPRLPRPRPRPMQMPRP, the “shrunken log2 fold change” value is reported as 0.467.
In the case of RRIRWRPPRLPRPRPRPTVRPRP, the “shrunken log2 fold change” value is reported as 1.14.
For RRIRDRPPRLPRPRPRPVLRPRP, the “shrunken log2 fold change” value was -0.0147.
RRIRMRPPRLPRPRPRPPFFPRP was tested, and the “shrunken log2 fold change” value was 0.528.
In the case of RRIRIRPPRLPRPRPRPLGPPRP, the “shrunken log2 fold change” value is reported as 0.0624.
In the case of RRIRLRPPRLPRPRPRPYMCPRP, the “shrunken log2 fold change” value is reported as -0.252.
For RRIRWRPPRLPRPRPRPVIYPRP, the “shrunken log2 fold change” value was -0.279.
In the case of RRIRPRPPRLPRPRPRPARRPRP, the “shrunken log2 fold change” value is reported as 0.374.
For RRIRCRPPRLPRPRPRPQNKPRP, the “shrunken log2 fold change” value was -0.526.
RRIRYRPPRLPRPRPRPKQIPRP was tested, and the “shrunken log2 fold change” value was -0.456.
With RRIRDRPPRLPRPRPRPIREPRP the “shrunken log2 fold change” value was -0.00227.
RRIRIRPPRLPRPRPRPCQLPRP was tested, and the “shrunken log2 fold change” value was -0.812.
In the case of RRIRDRPPRLPRPRPRPADLPRP, the “shrunken log2 fold change” value is reported as -0.0491.
With RRIRARPPRLPRPRPRPDYMPRP the “shrunken log2 fold change” value was -0.0383.
RRIRKRPPRLPRPRPRPLNEPRP was tested, and the “shrunken log2 fold change” value was 0.0114.
In the case of RRIRCRPPRLPRPRPRPHQSPRP, the “shrunken log2 fold change” value is reported as -0.0603.
With RRIRIRPPRLPRPRPRPSIQPRP the “shrunken log2 fold change” value was -0.252.
In the case of RRIRDRPPRLPRPRPRPHMHPRP, the “shrunken log2 fold change” value is reported as -0.0478.
With RRIRDRPPRLPRPRPRPGAIPRP the “shrunken log2 fold change” value was 0.271.
With RRIRGRPPRLPRPRPRPNLVPRP the “shrunken log2 fold change” value was 0.0862.
With RRIRFRPPRLPRPRPRPVDAPRP the “shrunken log2 fold change” value was 0.183.
In the case of RRIRGRPPRLPRPRPRPPEDPRP, the “shrunken log2 fold change” value is reported as 1.21.
In the case of RRIRNRPPRLPRPRPRPPCAPRP, the “shrunken log2 fold change” value is reported as -0.0473.
RRIRTRPPRLPRPRPRPGQYPRP was tested, and the “shrunken log2 fold change” value was -0.286.
RRIRTRPPRLPRPRPRPPCIPRP was tested, and the “shrunken log2 fold change” value was 0.00685.
RRIRFRPPRLPRPRPRPGMQPRP was tested, and the “shrunken log2 fold change” value was 0.237.
In the case of RRIRARPPRLPRPRPRPVMEPRP, the “shrunken log2 fold change” value is reported as 1.04.
For RRIRSRPPRLPRPRPRPAQRPRP, the “shrunken log2 fold change” value was 0.105.
For RRIRKRPPRLPRPRPRPNIGPRP, the “shrunken log2 fold change” value was -0.05.
For RRIRIRPPRLPRPRPRPDNCPRP, the “shrunken log2 fold change” value was -0.162.
With RRIRWRPPRLPRPRPRPFCCPRP the “shrunken log2 fold change” value was -0.163.
With RRIRDRPPRLPRPRPRPAVKPRP the “shrunken log2 fold change” value was 0.368.
RRIRRRPPRLPRPRPRPTCGPRP was tested, and the “shrunken log2 fold change” value was 0.506.
With RRIRYRPPRLPRPRPRPGRYPRP the “shrunken log2 fold change” value was -0.912.
In the case of RRIRNRPPRLPRPRPRPYMRPRP, the “shrunken log2 fold change” value is reported as -0.597.
RRIRCRPPRLPRPRPRPNKGPRP was tested, and the “shrunken log2 fold change” value was -0.302.
RRIRNRPPRLPRPRPRPQTGPRP was tested, and the “shrunken log2 fold change” value was -0.505.
RRIRLRPPRLPRPRPRPWCSPRP was tested, and the “shrunken log2 fold change” value was -1.02.
RRIRGRPPRLPRPRPRPEFDPRP was tested, and the “shrunken log2 fold change” value was 1.8.
RRIRNRPPRLPRPRPRPLCFPRP was tested, and the “shrunken log2 fold change” value was -0.461.
For RRIRYRPPRLPRPRPRPLWRPRP, the “shrunken log2 fold change” value was 0.0545.
In the case of RRIRMRPPRLPRPRPRPTFKPRP, the “shrunken log2 fold change” value is reported as 0.198.
In the case of RRIRKRPPRLPRPRPRPQHRPRP, the “shrunken log2 fold change” value is reported as 0.148.
For RRIRERPPRLPRPRPRPMGAPRP, the “shrunken log2 fold change” value was 0.0638.
In the case of RRIRTRPPRLPRPRPRPANVPRP, the “shrunken log2 fold change” value is reported as -0.0276.
With RRIRPRPPRLPRPRPRPFPAPRP the “shrunken log2 fold change” value was -0.161.
In the case of RRIRIRPPRLPRPRPRPVRCPRP, the “shrunken log2 fold change” value is reported as 0.201.
RRIRDRPPRLPRPRPRPQWRPRP was tested, and the “shrunken log2 fold change” value was 0.21.
With RRIRCRPPRLPRPRPRPPKHPRP the “shrunken log2 fold change” value was 0.203.
In the case of RRIRNRPPRLPRPRPRPNTCPRP, the “shrunken log2 fold change” value is reported as -0.195.
In the case of RRIRLRPPRLPRPRPRPELHPRP, the “shrunken log2 fold change” value is reported as 0.327.
RRIRERPPRLPRPRPRPRWQPRP was tested, and the “shrunken log2 fold change” value was 0.245.
With RRIRIRPPRLPRPRPRPYKTPRP the “shrunken log2 fold change” value was -0.0104.
